In PMC3341379:

Biological target: Clathrin triskelion with attached Gd-DTPA-ITC, as assembled into clathrin cages (rat (endogenous in rat liver and brain)) (UniProt P11442)
Assay: negative-stain transmission electron microscopy; cages assembled from modified triskelia mixed with AP-2 proteins 3:1 (v/v), dialysed against 50 mM MES Na pH 6.5, 100 mM NaCl, 2 mM DTT at 4°C; cages pelleted at 60,000 rpm and resuspended in 20 mM MES Na pH 6.2, 2 mM DTT; 0.05 mg/ml on carbon-coated grids, 1% uranyl acetate

## Clathrin triskelion with attached Gd-DTPA-ITC, as assembled into clathrin cages (from UniProt P11442 1-1675; P08081 1-248) (complex)
  stoichiometry N (triskelia per cage): 36
